Measured values taken from US20150299328A1 (ARMAGEN TECHNOLOGIES, published 2015).

Assays:
[1] = molecular target: T1, HIR extracellular domain (ECD) (human, UniProt P06213 28-956, limits assumed); test: ELISA, HIR ECD plated, biotinylated goat anti-human IgG detection
T1 construct: extracellular domain; also called HIR ECD; IR ECD
Protocol: The affinity of the fusion protein for the HIR extracellular domain (ECD) was determined with an ELISA. CHO cells permanently transfected with the HIR ECD were grown in serum free media (SFM), and the HIR ECD was purified with a wheat germ agglutinin affinity column, as previously described in Coloma et al. (2000) Pharm Res, 17:266-274. The HIR ECD was plated on Nunc-Maxisorb 96 well dishes and the binding of the HIR Ab, or the HIR Ab-IDUA fusion protein, to the HIR ECD was detected with a biotinylated goat anti-human IgG (H+L) secondary antibody, followed by avidin and biotinylated peroxidase (Vector Labs, Burlingame, Calif.). The concentration of either HIR Ab or HIR Ab-IDUA fusion protein that gave 50% maximal binding was determined with a non-linear regression analysis.

[2] = molecular target: T1, HIR extracellular domain (ECD); test: ELISA, HIR ECD plated
Protocol: The extracellular domain (ECD) of the HIR was purified by lectin affinity chromatography from serum free medium conditioned by CHO cells that were permanently transfected with the HIR ECD. The HIR ECD was plated in ELISA wells to bind the chimeric HIRMAb without IDUA fused, and the CHO-derived HIRMAb-IDUA fusion protein. […] The binding constants shown in FIG. 18 were determined by non-linear regression analysis of the binding isotherms.

B1: chimeric HIR Ab (human-mouse chimeric antibody to the human insulin receptor) (antibody, human IgG1, kappa)
heavy: not shown
light: DIQMTQSPSSLSASLGERVSLTCRASQDIGGNLYWLQQGPDGTIKRLIYATSSLDSGVPKRFSGSRSGSDYSLTISSLESEDFVDYYCLQYSSSPWTFGGGTKMEIKRTVAAPSVFIFPPSDEQLKSGTASVVCLLNNFYPREAKVQWKVDNALQSGNSQESVTEQDSKDSTYSLSSTLTLSKADYEKHKVYACEVTHQGLSSPVTKSFNRGEC
notes: Human IgG1 heavy chain constant region and human kappa light chain constant region; also called chimeric HIRMAb; HIRMAb
[1]
  EC50: 610 pM
[2]
  EC50: 750 pM

B2: HIR Ab-IDUA fusion protein (COS cell derived; HIR Ab-HC-IDUA fusion/HIR Ab-LC antibody) (antibody, human IgG1, kappa)
heavy: not shown
light: B1 light
notes: Bivalent antibody-enzyme fusion; It was made by dual transfection of COS cells with pHIR Ab-LC and pCD-HC-IDUA; also called HIR Ab-IDUA fusion antibody
[1]
  EC50: 930 pM
